From the supplement of paper PMC9112550, “Optimization of the antimicrobial peptide Bac7 by deep mutational scanning” (BMC Biology, 2022)

System: Escherichia coli TOP10
Assay: shrunken log2 fold change of peptide-encoding DNA abundance (4.5 h post-induction vs induction); higher = less antimicrobial activity (less host growth inhibition)
Conditions: time post-induction: 4.5 h; library: site-saturation at positions 5, 18, 19, 20
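Further: peptides expressed intracellularly from a pBAD plasmid library in pooled LB shake-flask culture, induced with 0.3% L-arabinose, DNA abundance read by NGS, three biological replicates, DESeq2 with apeglm shrinkage.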

How did the “shrunken log2 fold change” value turn out when RRIRPRPPRLPRPRPRPSFGPRP was run?
The value was -0.156.

For RRIRPRPPRLPRPRPRPSGPPRP, which “shrunken log2 fold change” value is on record?
Its value is -0.174.

RRIRPRPPRLPRPRPRPSHDPRP was tested. Which “shrunken log2 fold change” value did it give?
The value was -0.339.

RRIRPRPPRLPRPRPRPSHMPRP was tested. Which “shrunken log2 fold change” value did it give?
Its value is -0.466.

With RRIRPRPPRLPRPRPRPSIDPRP as the sequence, how does the “shrunken log2 fold change” value read?
The value was -0.598.

With RRIRPRPPRLPRPRPRPSIRPRP as the sequence, how does the “shrunken log2 fold change” value read?
The value was -0.306.

With RRIRPRPPRLPRPRPRPSLRPRP as the sequence, how does the “shrunken log2 fold change” value read?
Its value is 0.0129.

RRIRPRPPRLPRPRPRPSNTPRP was tested. Which “shrunken log2 fold change” value did it give?
Its value is -0.316.

For RRIRPRPPRLPRPRPRPSPNPRP, which “shrunken log2 fold change” value is on record?
Its value is 1.14.

RRIRPRPPRLPRPRPRPSQGPRP was tested. Which “shrunken log2 fold change” value did it give?
Its value is -0.418.

With RRIRPRPPRLPRPRPRPSRRPRP as the sequence, how does the “shrunken log2 fold change” value read?
Its value is -0.179.

Which “shrunken log2 fold change” value does the source give for RRIRPRPPRLPRPRPRPSRTPRP here?
The value was 0.198.

RRIRPRPPRLPRPRPRPSRYPRP was tested. Which “shrunken log2 fold change” value did it give?
The value was -0.163.

For RRIRPRPPRLPRPRPRPSSEPRP, which “shrunken log2 fold change” value is on record?
The value was 0.174.

With RRIRPRPPRLPRPRPRPSVNPRP as the sequence, how does the “shrunken log2 fold change” value read?
The value was -0.44.

How did the “shrunken log2 fold change” value turn out when RRIRPRPPRLPRPRPRPSWIPRP was run?
Its value is -0.179.

For RRIRPRPPRLPRPRPRPTCRPRP, which “shrunken log2 fold change” value is on record?
Its value is 0.418.

RRIRPRPPRLPRPRPRPTCSPRP was tested. Which “shrunken log2 fold change” value did it give?
The value was 0.265.

Which “shrunken log2 fold change” value does the source give for RRIRPRPPRLPRPRPRPTDAPRP here?
The value was 0.12.

RRIRPRPPRLPRPRPRPTDFPRP was tested. Which “shrunken log2 fold change” value did it give?
The value was -0.193.

Which “shrunken log2 fold change” value does the source give for RRIRPRPPRLPRPRPRPTDRPRP here?
Its value is 0.121.

Which “shrunken log2 fold change” value does the source give for RRIRPRPPRLPRPRPRPTDWPRP here?
The value was 0.257.

Which “shrunken log2 fold change” value does the source give for RRIRPRPPRLPRPRPRPTEGPRP here?
The value was -0.0468.

RRIRPRPPRLPRPRPRPTEIPRP was tested. Which “shrunken log2 fold change” value did it give?
Its value is 0.000528.

Which “shrunken log2 fold change” value does the source give for RRIRPRPPRLPRPRPRPTFIPRP here?
The value was -0.243.

For RRIRPRPPRLPRPRPRPTHFPRP, which “shrunken log2 fold change” value is on record?
The value was 0.442.

For RRIRPRPPRLPRPRPRPTHVPRP, which “shrunken log2 fold change” value is on record?
The value was 0.317.

For RRIRPRPPRLPRPRPRPTIFPRP, which “shrunken log2 fold change” value is on record?
Its value is 0.0842.

For RRIRPRPPRLPRPRPRPTIQPRP, which “shrunken log2 fold change” value is on record?
The value was -0.101.

With RRIRPRPPRLPRPRPRPTKGPRP as the sequence, how does the “shrunken log2 fold change” value read?
Its value is 0.0911.

RRIRPRPPRLPRPRPRPTKHPRP was tested. Which “shrunken log2 fold change” value did it give?
The value was -0.131.

RRIRPRPPRLPRPRPRPTKMPRP was tested. Which “shrunken log2 fold change” value did it give?
Its value is 0.0417.

With RRIRPRPPRLPRPRPRPTKWPRP as the sequence, how does the “shrunken log2 fold change” value read?
Its value is 0.187.

Which “shrunken log2 fold change” value does the source give for RRIRPRPPRLPRPRPRPTLIPRP here?
Its value is -0.169.

How did the “shrunken log2 fold change” value turn out when RRIRPRPPRLPRPRPRPTMPPRP was run?
The value was -0.144.

RRIRPRPPRLPRPRPRPTMQPRP was tested. Which “shrunken log2 fold change” value did it give?
Its value is 0.393.

Which “shrunken log2 fold change” value does the source give for RRIRPRPPRLPRPRPRPTNTPRP here?
Its value is -0.375.

How did the “shrunken log2 fold change” value turn out when RRIRPRPPRLPRPRPRPTSLPRP was run?
The value was 0.044.

With RRIRPRPPRLPRPRPRPTSWPRP as the sequence, how does the “shrunken log2 fold change” value read?
Its value is 0.769.

Which “shrunken log2 fold change” value does the source give for RRIRPRPPRLPRPRPRPTTQPRP here?
Its value is 0.0237.

With RRIRPRPPRLPRPRPRPTVIPRP as the sequence, how does the “shrunken log2 fold change” value read?
The value was -0.28.

How did the “shrunken log2 fold change” value turn out when RRIRPRPPRLPRPRPRPTVNPRP was run?
Its value is -0.157.

With RRIRPRPPRLPRPRPRPTWAPRP as the sequence, how does the “shrunken log2 fold change” value read?
Its value is 0.381.

With RRIRPRPPRLPRPRPRPTWFPRP as the sequence, how does the “shrunken log2 fold change” value read?
The value was 0.0698.

Which “shrunken log2 fold change” value does the source give for RRIRPRPPRLPRPRPRPTWGPRP here?
Its value is 0.593.

With RRIRPRPPRLPRPRPRPTWTPRP as the sequence, how does the “shrunken log2 fold change” value read?
Its value is 0.071.

For RRIRPRPPRLPRPRPRPVAKPRP, which “shrunken log2 fold change” value is on record?
The value was 0.236.

Which “shrunken log2 fold change” value does the source give for RRIRPRPPRLPRPRPRPVCAPRP here?
The value was 0.396.

Which “shrunken log2 fold change” value does the source give for RRIRPRPPRLPRPRPRPVCPPRP here?
The value was 0.0159.

How did the “shrunken log2 fold change” value turn out when RRIRPRPPRLPRPRPRPVDRPRP was run?
The value was 0.115.

RRIRPRPPRLPRPRPRPVDVPRP was tested. Which “shrunken log2 fold change” value did it give?
Its value is -0.0323.

Which “shrunken log2 fold change” value does the source give for RRIRPRPPRLPRPRPRPVEGPRP here?
Its value is 0.0448.

For RRIRPRPPRLPRPRPRPVFNPRP, which “shrunken log2 fold change” value is on record?
Its value is -0.344.

How did the “shrunken log2 fold change” value turn out when RRIRPRPPRLPRPRPRPVFTPRP was run?
The value was -0.0534.

For RRIRPRPPRLPRPRPRPVGSPRP, which “shrunken log2 fold change” value is on record?
The value was 0.261.

How did the “shrunken log2 fold change” value turn out when RRIRPRPPRLPRPRPRPVKAPRP was run?
The value was 0.216.

RRIRPRPPRLPRPRPRPVKGPRP was tested. Which “shrunken log2 fold change” value did it give?
Its value is 0.203.

RRIRPRPPRLPRPRPRPVLAPRP was tested. Which “shrunken log2 fold change” value did it give?
The value was 0.668.

How did the “shrunken log2 fold change” value turn out when RRIRPRPPRLPRPRPRPVMDPRP was run?
The value was 0.0311.

For RRIRPRPPRLPRPRPRPVMNPRP, which “shrunken log2 fold change” value is on record?
Its value is -0.29.

How did the “shrunken log2 fold change” value turn out when RRIRPRPPRLPRPRPRPVNHPRP was run?
Its value is -0.277.

Which “shrunken log2 fold change” value does the source give for RRIRPRPPRLPRPRPRPVNIPRP here?
Its value is -0.226.

Which “shrunken log2 fold change” value does the source give for RRIRPRPPRLPRPRPRPVPNPRP here?
Its value is 0.14.

How did the “shrunken log2 fold change” value turn out when RRIRPRPPRLPRPRPRPVPSPRP was run?
Its value is 0.448.

RRIRPRPPRLPRPRPRPVRPPRP was tested. Which “shrunken log2 fold change” value did it give?
Its value is 0.854.

With RRIRPRPPRLPRPRPRPVRRPRP as the sequence, how does the “shrunken log2 fold change” value read?
The value was 0.418.

How did the “shrunken log2 fold change” value turn out when RRIRPRPPRLPRPRPRPVSKPRP was run?
The value was -0.166.

For RRIRPRPPRLPRPRPRPVSNPRP, which “shrunken log2 fold change” value is on record?
The value was -0.622.

For RRIRPRPPRLPRPRPRPVSYPRP, which “shrunken log2 fold change” value is on record?
The value was -0.245.

For RRIRPRPPRLPRPRPRPVTCPRP, which “shrunken log2 fold change” value is on record?
Its value is -0.237.

With RRIRPRPPRLPRPRPRPVTYPRP as the sequence, how does the “shrunken log2 fold change” value read?
Its value is -0.0866.

With RRIRPRPPRLPRPRPRPVWNPRP as the sequence, how does the “shrunken log2 fold change” value read?
Its value is -0.109.

For RRIRPRPPRLPRPRPRPVYKPRP, which “shrunken log2 fold change” value is on record?
Its value is -0.199.

With RRIRPRPPRLPRPRPRPVYRPRP as the sequence, how does the “shrunken log2 fold change” value read?
The value was -0.166.

RRIRPRPPRLPRPRPRPWAEPRP was tested. Which “shrunken log2 fold change” value did it give?
The value was 0.166.
